Measured values reported in patent publication US20250121075A1, “ALPHA-FETOPROTEIN BIOCONJUGATES FOR DISEASE TREATMENT” (priority 2021, published 2025).
Read-outs that look alike come from different tables or passages of the source.

What was measured:
Assay type in all cases: cell-based, human
U937 cells = assay: Cytotoxicity of AFP-ABZ982 and AFP-ABZ1827 bioconjugates, 4 day incubation; conditions: 4 days
Description: (§1) Bioconjugates containing ABZ981 with two different release functionalities (AFP-ABZ982 and AFP-ABZ1827) were subsequently prepared at DPRs of 2.5 to 6.3. Cells were incubated for 4 days in the presence of the compounds over an 8-point concentration range, with each concentration tested in triplicate. Two experiments performed using freshly thawed U937 cells gave similar results to U937 cells maintained in culture.

SKOV3 cells = assay: as above; conditions: read-out: Average IC50 SKOV3 cells (n = 1), 4 days
Description: as §1

COLO-205 cells = assay: CellTiter-Glo cell viability, 72 hours; conditions: Homo sapiens
Description: Turning to Table 5, two bioconjugates of each of AFP-ABZ982 and AFP-ABZ1827 (4 in total) were prepared at DPRs of approximately 4 (“low DPR”) and 6 (“high DPR”) for efficacy testing in vivo in the COLO-205 human tumor xenograft model. Potency in the COLO-205 cell line prior to implantation was assessed. Briefly, 96 well plates were seeded with COLO-205 cells either at 5,000 or 2,500 cells per well in a total volume to 50 μL per well. Plates were incubated overnight then treated with the bioconjugate at 37° C. for 72 hours and then a CellTiter-Glo assay was performed to measure cell viability. Samples were run in triplicate.

[1] = freshly thawed cells, read-out: Average IC50 U937 freshly thawed cells (n = 2)
[2] = read-out: Average IC50 U937 cultured cells (n = 1), cells maintained in culture

Molecule | IC50 (U937 cells; Homo sapiens, U-937, 96 h, read-out: Average IC50 U937 cultured cells (n = 1), cells maintained in culture) [nM] | IC50 (U937 cells; Homo sapiens, U-937, 96 h, freshly thawed cells, read-out: Average IC50 U937 freshly thawed cells (n = 2)) [nM] | IC50 (SKOV3 cells; Homo sapiens, SK-OV-3, 96 h) [nM] | IC50 (COLO-205 cells) [nM] | IC50 (U937 cells; [1]) [nM] | IC50 (U937 cells; [2]) [nM] | IC50 (SKOV3 cells) [nM]
COc1cc2cc(c1-c1ccc(NC(=O)CCC(C)S)cc1)N(C)C(=O)C[C@H](OC(=O)C(C)C)[C@]1(C)O[C@H]1[C@H](C)[C@@H]1C[C@@](O)(NC(=O)O1)[C@H](OC)/C=C/C=C(\C)C2 (stereo partly drawn) [ABZ-981] | 3.06 | 2.84 | 5.53 | 6.1 | – | – | –
AFP-ABZ982 DPR 5.51: AFP-ABZ982 bioconjugate, average DPR 5.51 (conjugate, UniProt P02771 19-609, looked up, ABZ982 toxin conjugate, DPR 5.51) Alpha-fetoprotein: RTLHRNEYGIASILDSYQCTAEISLADLATIFFAQFVQEATYKEVSKMVKDALTAIEKPTGDEQSSGCLENQLPAFLEELCHEKEILEKYGHSDCCSQSEEGRHNCFLAHKKPTPASIPLFQVPEPVTSCEAYEEDRETFMNKFIYEIARRHPFLYAPTILLWAARYDKIIPSCCKAENAVECFQTKAATVTKELRESSLLNQHACAVMKNFGTRTFQAITVTKLSQKFTKVNFTEIQKLVLDVAHVHEHCCRGDVLDCLQDGEKIMSYICSQQDTLSNKITECCKLTTLERGQCIIHAENDEKPEGLSPNLNRFLGDRDFNQFSSGEKNIFLASFVHEYSRRHPQLAVSVILRVAKGYQELLEKCFQTENPLECQDKGEEELQKYIQESQALAKRSCGLFQKLGEYYLQNAFLVAYTKKAPQLTSSELMAITRKMAATAATCCQLSEDKLLACGEGAADIIIGHLCIRHEMTPVNPGVGQCCTSSYANRRPCFSSLVVDETYVPPAFSDDKFIFHKDLCQAQGVALQTMKQEFLINLVKQKPQITEEQLEAVIADFSGLLEKCCQGQEQEVCFAEEGQKLISKTRAALGV | – | – | – | – | 1.71 | 2.01 | 17.5
AFP-ABZ982 DPR 6.28: AFP-ABZ982 bioconjugate, average DPR 6.28 (conjugate, UniProt P02771 19-609, looked up, ABZ982 toxin conjugate, DPR 6.28) Alpha-fetoprotein: RTLHRNEYGIASILDSYQCTAEISLADLATIFFAQFVQEATYKEVSKMVKDALTAIEKPTGDEQSSGCLENQLPAFLEELCHEKEILEKYGHSDCCSQSEEGRHNCFLAHKKPTPASIPLFQVPEPVTSCEAYEEDRETFMNKFIYEIARRHPFLYAPTILLWAARYDKIIPSCCKAENAVECFQTKAATVTKELRESSLLNQHACAVMKNFGTRTFQAITVTKLSQKFTKVNFTEIQKLVLDVAHVHEHCCRGDVLDCLQDGEKIMSYICSQQDTLSNKITECCKLTTLERGQCIIHAENDEKPEGLSPNLNRFLGDRDFNQFSSGEKNIFLASFVHEYSRRHPQLAVSVILRVAKGYQELLEKCFQTENPLECQDKGEEELQKYIQESQALAKRSCGLFQKLGEYYLQNAFLVAYTKKAPQLTSSELMAITRKMAATAATCCQLSEDKLLACGEGAADIIIGHLCIRHEMTPVNPGVGQCCTSSYANRRPCFSSLVVDETYVPPAFSDDKFIFHKDLCQAQGVALQTMKQEFLINLVKQKPQITEEQLEAVIADFSGLLEKCCQGQEQEVCFAEEGQKLISKTRAALGV | – | – | – | – | – | 6.55 | 37
AFP-ABZ1827 DPR 3.35: AFP-ABZ1827 bioconjugate, average DPR 3.35 (conjugate, UniProt P02771 19-609, looked up, ABZ1827 toxin conjugate, DPR 3.35) Alpha-fetoprotein: RTLHRNEYGIASILDSYQCTAEISLADLATIFFAQFVQEATYKEVSKMVKDALTAIEKPTGDEQSSGCLENQLPAFLEELCHEKEILEKYGHSDCCSQSEEGRHNCFLAHKKPTPASIPLFQVPEPVTSCEAYEEDRETFMNKFIYEIARRHPFLYAPTILLWAARYDKIIPSCCKAENAVECFQTKAATVTKELRESSLLNQHACAVMKNFGTRTFQAITVTKLSQKFTKVNFTEIQKLVLDVAHVHEHCCRGDVLDCLQDGEKIMSYICSQQDTLSNKITECCKLTTLERGQCIIHAENDEKPEGLSPNLNRFLGDRDFNQFSSGEKNIFLASFVHEYSRRHPQLAVSVILRVAKGYQELLEKCFQTENPLECQDKGEEELQKYIQESQALAKRSCGLFQKLGEYYLQNAFLVAYTKKAPQLTSSELMAITRKMAATAATCCQLSEDKLLACGEGAADIIIGHLCIRHEMTPVNPGVGQCCTSSYANRRPCFSSLVVDETYVPPAFSDDKFIFHKDLCQAQGVALQTMKQEFLINLVKQKPQITEEQLEAVIADFSGLLEKCCQGQEQEVCFAEEGQKLISKTRAALGV | – | – | – | – | 7.07 | 5.52 | 66.4
AFP-ABZ1827 DPR 4.40: AFP-ABZ1827 bioconjugate, average DPR 4.40 (conjugate, UniProt P02771 19-609, looked up, ABZ1827 toxin conjugate, DPR 4.40) Alpha-fetoprotein: RTLHRNEYGIASILDSYQCTAEISLADLATIFFAQFVQEATYKEVSKMVKDALTAIEKPTGDEQSSGCLENQLPAFLEELCHEKEILEKYGHSDCCSQSEEGRHNCFLAHKKPTPASIPLFQVPEPVTSCEAYEEDRETFMNKFIYEIARRHPFLYAPTILLWAARYDKIIPSCCKAENAVECFQTKAATVTKELRESSLLNQHACAVMKNFGTRTFQAITVTKLSQKFTKVNFTEIQKLVLDVAHVHEHCCRGDVLDCLQDGEKIMSYICSQQDTLSNKITECCKLTTLERGQCIIHAENDEKPEGLSPNLNRFLGDRDFNQFSSGEKNIFLASFVHEYSRRHPQLAVSVILRVAKGYQELLEKCFQTENPLECQDKGEEELQKYIQESQALAKRSCGLFQKLGEYYLQNAFLVAYTKKAPQLTSSELMAITRKMAATAATCCQLSEDKLLACGEGAADIIIGHLCIRHEMTPVNPGVGQCCTSSYANRRPCFSSLVVDETYVPPAFSDDKFIFHKDLCQAQGVALQTMKQEFLINLVKQKPQITEEQLEAVIADFSGLLEKCCQGQEQEVCFAEEGQKLISKTRAALGV | – | – | – | – | 5.98 | 7.47 | 58.8
AFP-ABZ1827 DPR 5.88: AFP-ABZ1827 bioconjugate, average DPR 5.88 (conjugate, UniProt P02771 19-609, looked up, ABZ1827 toxin conjugate, DPR 5.88) Alpha-fetoprotein: RTLHRNEYGIASILDSYQCTAEISLADLATIFFAQFVQEATYKEVSKMVKDALTAIEKPTGDEQSSGCLENQLPAFLEELCHEKEILEKYGHSDCCSQSEEGRHNCFLAHKKPTPASIPLFQVPEPVTSCEAYEEDRETFMNKFIYEIARRHPFLYAPTILLWAARYDKIIPSCCKAENAVECFQTKAATVTKELRESSLLNQHACAVMKNFGTRTFQAITVTKLSQKFTKVNFTEIQKLVLDVAHVHEHCCRGDVLDCLQDGEKIMSYICSQQDTLSNKITECCKLTTLERGQCIIHAENDEKPEGLSPNLNRFLGDRDFNQFSSGEKNIFLASFVHEYSRRHPQLAVSVILRVAKGYQELLEKCFQTENPLECQDKGEEELQKYIQESQALAKRSCGLFQKLGEYYLQNAFLVAYTKKAPQLTSSELMAITRKMAATAATCCQLSEDKLLACGEGAADIIIGHLCIRHEMTPVNPGVGQCCTSSYANRRPCFSSLVVDETYVPPAFSDDKFIFHKDLCQAQGVALQTMKQEFLINLVKQKPQITEEQLEAVIADFSGLLEKCCQGQEQEVCFAEEGQKLISKTRAALGV | – | – | – | – | 2.93 | 2.04 | 35.6
AFP-ABZ982 DPR 2.50: AFP-ABZ982 bioconjugate, average DPR 2.50 (conjugate, UniProt P02771 19-609, looked up, ABZ982 toxin conjugate, DPR 2.50) Alpha-fetoprotein: RTLHRNEYGIASILDSYQCTAEISLADLATIFFAQFVQEATYKEVSKMVKDALTAIEKPTGDEQSSGCLENQLPAFLEELCHEKEILEKYGHSDCCSQSEEGRHNCFLAHKKPTPASIPLFQVPEPVTSCEAYEEDRETFMNKFIYEIARRHPFLYAPTILLWAARYDKIIPSCCKAENAVECFQTKAATVTKELRESSLLNQHACAVMKNFGTRTFQAITVTKLSQKFTKVNFTEIQKLVLDVAHVHEHCCRGDVLDCLQDGEKIMSYICSQQDTLSNKITECCKLTTLERGQCIIHAENDEKPEGLSPNLNRFLGDRDFNQFSSGEKNIFLASFVHEYSRRHPQLAVSVILRVAKGYQELLEKCFQTENPLECQDKGEEELQKYIQESQALAKRSCGLFQKLGEYYLQNAFLVAYTKKAPQLTSSELMAITRKMAATAATCCQLSEDKLLACGEGAADIIIGHLCIRHEMTPVNPGVGQCCTSSYANRRPCFSSLVVDETYVPPAFSDDKFIFHKDLCQAQGVALQTMKQEFLINLVKQKPQITEEQLEAVIADFSGLLEKCCQGQEQEVCFAEEGQKLISKTRAALGV | – | – | – | – | 5.25 | 5.22 | 56.1
AFP-ABZ982 DPR 3.84: AFP-ABZ982 bioconjugate, average DPR 3.84 (conjugate, UniProt P02771 19-609, looked up, ABZ982 toxin conjugate, DPR 3.84) Alpha-fetoprotein: RTLHRNEYGIASILDSYQCTAEISLADLATIFFAQFVQEATYKEVSKMVKDALTAIEKPTGDEQSSGCLENQLPAFLEELCHEKEILEKYGHSDCCSQSEEGRHNCFLAHKKPTPASIPLFQVPEPVTSCEAYEEDRETFMNKFIYEIARRHPFLYAPTILLWAARYDKIIPSCCKAENAVECFQTKAATVTKELRESSLLNQHACAVMKNFGTRTFQAITVTKLSQKFTKVNFTEIQKLVLDVAHVHEHCCRGDVLDCLQDGEKIMSYICSQQDTLSNKITECCKLTTLERGQCIIHAENDEKPEGLSPNLNRFLGDRDFNQFSSGEKNIFLASFVHEYSRRHPQLAVSVILRVAKGYQELLEKCFQTENPLECQDKGEEELQKYIQESQALAKRSCGLFQKLGEYYLQNAFLVAYTKKAPQLTSSELMAITRKMAATAATCCQLSEDKLLACGEGAADIIIGHLCIRHEMTPVNPGVGQCCTSSYANRRPCFSSLVVDETYVPPAFSDDKFIFHKDLCQAQGVALQTMKQEFLINLVKQKPQITEEQLEAVIADFSGLLEKCCQGQEQEVCFAEEGQKLISKTRAALGV | – | – | – | – | 5.29 | 4.49 | 35.5
